Test results taken from publication PMC3556364.
Read-outs that look alike come from different tables or passages of the source.

Tests used:
[1] = target: Azotobacter vinelandii ^NifIscA (Azotobacter vinelandii); experiment: SEC
[2] = target: Azotobacter vinelandii ^NifIscA (Azotobacter vinelandii); experiment: SEC; remark: listed apart in the source

For “Azotobacter vinelandii ^NifIscA (natural protein)”, the stoichiometry N [1] was 2 and the stoichiometry N [2] was 2.
